Common to all, as to conditions: protein: recombinant; tags: His (pET32a); blunt
Data set [1] has as its target T1, MdMYB10-HIS (also printed MdMYB1-HIS) (Malus domestica? (apple), UniProt E2RZU2 1-243).
T1 sequence: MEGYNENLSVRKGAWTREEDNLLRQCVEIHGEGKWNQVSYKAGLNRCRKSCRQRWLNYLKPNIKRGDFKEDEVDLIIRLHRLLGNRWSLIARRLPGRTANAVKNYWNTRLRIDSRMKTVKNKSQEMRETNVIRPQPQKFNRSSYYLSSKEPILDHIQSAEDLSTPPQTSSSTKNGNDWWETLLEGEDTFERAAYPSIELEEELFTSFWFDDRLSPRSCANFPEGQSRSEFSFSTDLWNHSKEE
Nature of the data set: EMSA; not stated (EMSA as described by Xie et al. [40]). A general note: Mobility shift assays separate free from complexed probe on a gel.

For data set [2], the target named is T1, MdMYB10-HIS (also printed MdMYB1-HIS). Put plainly: competition; unlabeled MBS-1m against labeled MBS-1; no competition; not stated (EMSA as described by Xie et al. [40]).
Data set [3] has the same target. Nature of the data set: EMSA; shift seen; authors judge it non-specific; not stated (EMSA as described by Xie et al. [40]).

Data on 3 molecules can be found in paper PMC9016894, “MdMYB10 affects nitrogen uptake and reallocation by regulating the nitrate transporter MdNRT2.4-1 in red-fleshed apple”.

Changes are numbered by the printed parent chain.

B1: MdNRT2.4-1(MBS-1) (dsDNA)
DNA 1: TTATAGAGGGTTTTGAGTTGACCGTGTGAAGGGTTGTGAAGAGGC
DNA 2: GCCTCTTCACAACCCTTCACACGGTCAACTCAAAACCCTCTATAA
Regarding B1, in data set [1], the binding result is recorded as “binds”.

B2: MdNRT2.4-1(MBS-1m) (dsDNA)
DNA 1: B1 DNA 1 with C22T, C23T
DNA 2: B1 DNA 2 with G23A, G24A
For B2, the binding result in data set [2] was “no binding”.

B3: MdNIA2-1(MRE) (dsDNA)
DNA 1: AAGATTTCAGTTTAACAATTAGGTTGATTAGGAACCGGAACCAAA
DNA 2: TTTGGTTCCGGTTCCTAATCAACCTAATTGTTAAACTGAAATCTT
Turning to B3, the binding result in data set [3] is “binds”.
